We go through 2 molecules from PMC4132724.

This data set addresses T1, Pot1pN (Schizosaccharomyces pombe, UniProt O13988 1-185).
T1 sequence: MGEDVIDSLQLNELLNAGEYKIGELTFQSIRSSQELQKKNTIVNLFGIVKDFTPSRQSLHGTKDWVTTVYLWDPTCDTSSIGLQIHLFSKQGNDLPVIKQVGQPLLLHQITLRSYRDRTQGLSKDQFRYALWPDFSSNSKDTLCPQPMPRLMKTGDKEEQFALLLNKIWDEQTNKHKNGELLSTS
Put plainly: EMSA. (Mobility shift assays separate free from complexed probe on a gel.)

B1: 20-mer control (GGTTAC) (ssDNA)
DNA: GGTCACGGTCACAGGTTACA
The Kd is the equilibrium constant for the complex coming apart. Low values mean higher affinity, high ones lower affinity. For B1, binding was characterised by a dissociation constant (Kd) of 66 ± 5 nM.

B2: 5hmU at T3 (ssDNA)
DNA: GGTCACGGTCACAGGUTACA
modifications: 5-hydroxymethyl-2'-deoxyuridine at position 16 (written U)
The molecule B2 gave a Kd of 67 ± 5.6 nM.
